The values that follow come from publication PMC6224091.

The chains are these.
B1: V5-Par6A (wild type) [not stated] / YFP-Tuba [not stated] (parent)
chain 1: MARPQRTPARSPDSIVEVKSKFDAEFRRFALPRASVSGFQEFSRLLRAVHQIPGLDVLLGYTDAHGDLLPLTNDDSLHRALASGPPPLRLLVQKRAEADSSGLAFASNSLQRRKKGLLLRPVAPLRTRPPLLISLPQDFRQVSSVIDVDLLPETHRRVRLHKHGSDRPLGFYIRDGMSVRVAPQGLERVPGIFISRLVRGGLAESTGLLAVSDEILEVNGIEVAGKTLDQVTDMMVANSHNLIVTVKPANQRNNVVRGASGRLTGPPSAGPGPAEPDSDDDSSDLVIENRQPPSSNGLSQGPPCWDLHPGCRHPGTRSSLPSLDDQEQASSGWGSRIRGDGSGFSL
chain 2: MEAGSVVRAIFDFCPSVSEELPLFVGDIIEVLAVVDEFWLLGKKEDVTGQFPSSFVEIVTIPSLKEGERLFVCICEFTSQELDNLPLHRGDLVILDGIPTAGWLQGRSCWGARGFFPSSCVRELCLSSQSRQWHSQSALFQIPEYSMGQARALMGLSAQLDEELDFREGDVITIIGVPEPGWFEGELEGRRGIFPEGFVELLGPLRTVDESVSSGNQDDCIVNGEVDTPVGEEEIGPDEDEEEPGTYGVALYRFQALEPNELDFEVGDKIRILATLEDGWLEGSLKGRTGIFPYRFVKLCPDTRVEETMALPQEGSLARIPETSLDCLENTLGVEEQRHETSDHEAEEPDCIISEAPTSPLGHLTSEYDTDRNSYQDEDTAGGPPRSPGVEWEMPLATDSPTSDPTEVVNGISSQPQVPFHPNLQKSQYYSTVGGSHPHSEQYPDLLPLEARTRDYASLPPKRMYSQLKTLQKPVLPLYRGSSVSASRVVKPRQSSPQLHNLASYTKKHHTSSVYSISERLEMKPGPQAQGLVMEAATHSQGDGSTDLDSKLTQQLIEFEKSLAGPGTEPDKILRHFSIMDFNSEKDIVRGSSKLITEQELPERRKALRPPPPRPCTPVSTSPHLLVDQNLKPAPPLVVRPSRPAPLPPSAQQRTNAVSPKLLSRHRPTCETLEKEGPGHMGRSLDQTSPCPLVLVRIEEMERDLDMYSRAQEELNLMLEEKQDESSRAETLEDLKFCESNIESLNMELQQLREMTLLSSQSSSLVAPSGSVSAENPEQRMLEKRAKVIEELLQTERDYIRDLEMCIERIMVPMQQAQVPNIDFEGLFGNMQMVIKVSKQLLAALEISDAVGPVFLGHRDELEGTYKIYCQNHDEAIALLEIYEKDEKIQKHLQDSLADLKSLYNEWGCTNYINLGSFLIKPVQRVMRYPLLLMELLNSTPESHPDKVPLTNAVLAVKEINVNINEYKRRKDLVLKYRKGDEDSLMEKISKLNIHSIIKKSNRVSSHLKHLTGFAPQIKDEVFEETEKNFRMQERLIKSFIRDLSLYLQHIRESACVKVVAAVSMWDVCMERGHRDLEQFERVHRYISDQLFTNFKERTERLVISPLNQLLSMFTGPHKLVQKRFDKLLDFYNCTERAEKLKDKKTLEELQSARNNYEALNAQLLDELPKFHQYAQGLFTNCVHGYAEAHCDFVHQALEQLKPLLSLLKVAGREGNLIAIFHEEHSRVLQQLQVFTFFPESLPATKKPFERKTIDRQSARKPLLGLPSYMLQSEELRASLLARYPPEKLFQAERNFNAAQDLDVSLLEGDLVGVIKKKDPMGSQNRWLIDNGVTKGFVYSSFLKPYNPRRSHSDASVGSHSSTESEHGSSSPRFPRQNSGSTLTFNPSSMAVSFTSGSCQKQPQDASPPPKECDQGTLSASLNPSNSESSPSRCPSDPDSTSQPRSGDSADVARDVKQPTATPRSYRNFRHPEIVGYSVPGRNGQSQDLVKGCARTAQAPEDRSTEPDGSEAEGNQVYFAVYTFKARNPNELSVSANQKLKILEFKDVTGNTEWWLAEVNGKKGYVPSNYIRKTEYT

In this assay the parent is B1. The assay can be described thus: co-immunoprecipitation (IP: GFP), quantified blot. The settings on record: with YFP-Tuba; HEK293T cells; co-expressed with HA-Cdc42(G12V); n = 4; parent: 1; read off a plot.
Turning to chain 1 I133A S134A, the ratio to parent was 0.73.
